Values of other authors in paper PMC5982148.

Experiments:
Assay in all cases: SPR
CYP1B1 (Homo sapiens) = CYP1B1 (Homo sapiens) (UniProt Q16678)
CYP2C9 (Homo sapiens) = CYP2C9 (Homo sapiens) (UniProt P11712)
[1] = target: glyceraldehyde-3-phosphate dehydrogenase (Homo sapiens) (UniProt P04406)
[2] = target: NADPH-adrenodoxin reductase (Homo sapiens) (UniProt P22570)
SMAD4 (Homo sapiens) = SMAD4 (Homo sapiens) (UniProt Q13485)
[3] = target: cytochrome b5 (Homo sapiens) (UniProt P00167)

Chain of UniProt P04406 (P04406 2-335): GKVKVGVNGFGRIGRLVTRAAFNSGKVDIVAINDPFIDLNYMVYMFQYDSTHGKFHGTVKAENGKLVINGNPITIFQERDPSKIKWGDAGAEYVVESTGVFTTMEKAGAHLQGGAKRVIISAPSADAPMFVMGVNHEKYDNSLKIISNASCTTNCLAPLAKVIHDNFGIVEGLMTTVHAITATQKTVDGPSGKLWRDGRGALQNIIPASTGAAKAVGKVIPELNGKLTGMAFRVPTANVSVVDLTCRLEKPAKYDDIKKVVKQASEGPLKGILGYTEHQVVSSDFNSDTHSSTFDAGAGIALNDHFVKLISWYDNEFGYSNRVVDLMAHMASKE
Chain of UniProt Q13485 (Q13485 whole entry): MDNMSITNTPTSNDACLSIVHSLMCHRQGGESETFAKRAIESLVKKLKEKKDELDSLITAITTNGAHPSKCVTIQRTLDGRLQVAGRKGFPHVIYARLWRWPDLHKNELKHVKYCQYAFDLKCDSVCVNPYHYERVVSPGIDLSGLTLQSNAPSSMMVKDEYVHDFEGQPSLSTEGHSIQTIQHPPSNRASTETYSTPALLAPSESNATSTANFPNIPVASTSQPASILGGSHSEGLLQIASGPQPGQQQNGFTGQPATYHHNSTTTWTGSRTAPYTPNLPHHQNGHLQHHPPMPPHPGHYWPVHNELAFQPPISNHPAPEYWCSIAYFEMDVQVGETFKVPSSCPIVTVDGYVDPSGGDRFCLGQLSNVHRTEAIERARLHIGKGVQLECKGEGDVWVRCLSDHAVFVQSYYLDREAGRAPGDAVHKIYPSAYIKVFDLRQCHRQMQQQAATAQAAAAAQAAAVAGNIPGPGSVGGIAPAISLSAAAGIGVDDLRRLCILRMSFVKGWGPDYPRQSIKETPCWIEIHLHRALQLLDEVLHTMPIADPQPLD
Chain of UniProt Q16678 (Q16678 whole entry): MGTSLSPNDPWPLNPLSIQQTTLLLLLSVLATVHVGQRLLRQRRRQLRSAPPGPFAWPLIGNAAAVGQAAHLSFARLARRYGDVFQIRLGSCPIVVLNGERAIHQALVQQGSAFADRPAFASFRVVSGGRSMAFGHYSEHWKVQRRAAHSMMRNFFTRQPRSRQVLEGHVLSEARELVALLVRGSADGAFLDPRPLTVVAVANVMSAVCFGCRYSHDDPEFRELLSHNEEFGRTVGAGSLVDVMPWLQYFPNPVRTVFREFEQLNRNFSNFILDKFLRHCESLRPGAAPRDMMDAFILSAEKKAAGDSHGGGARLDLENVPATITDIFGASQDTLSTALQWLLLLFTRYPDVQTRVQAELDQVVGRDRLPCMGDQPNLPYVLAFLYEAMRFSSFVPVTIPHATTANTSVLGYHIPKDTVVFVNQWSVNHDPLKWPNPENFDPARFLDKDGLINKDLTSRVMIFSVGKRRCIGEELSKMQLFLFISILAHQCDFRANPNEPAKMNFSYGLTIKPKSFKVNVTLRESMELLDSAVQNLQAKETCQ
Chain of UniProt P11712 (P11712 whole entry): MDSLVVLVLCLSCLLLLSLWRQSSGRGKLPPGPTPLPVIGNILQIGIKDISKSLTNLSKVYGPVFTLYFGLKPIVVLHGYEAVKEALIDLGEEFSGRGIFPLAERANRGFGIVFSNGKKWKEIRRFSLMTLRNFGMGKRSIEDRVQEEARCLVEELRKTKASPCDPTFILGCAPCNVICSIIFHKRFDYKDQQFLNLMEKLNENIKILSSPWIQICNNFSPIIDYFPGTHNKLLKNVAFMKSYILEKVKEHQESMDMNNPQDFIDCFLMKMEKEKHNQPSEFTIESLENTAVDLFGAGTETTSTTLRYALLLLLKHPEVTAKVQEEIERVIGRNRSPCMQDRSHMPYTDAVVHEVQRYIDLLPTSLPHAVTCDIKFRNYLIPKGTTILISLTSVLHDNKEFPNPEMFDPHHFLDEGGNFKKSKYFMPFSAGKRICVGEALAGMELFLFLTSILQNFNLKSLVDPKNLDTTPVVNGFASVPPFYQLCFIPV
Chain of UniProt P22570 (P22570 33-491): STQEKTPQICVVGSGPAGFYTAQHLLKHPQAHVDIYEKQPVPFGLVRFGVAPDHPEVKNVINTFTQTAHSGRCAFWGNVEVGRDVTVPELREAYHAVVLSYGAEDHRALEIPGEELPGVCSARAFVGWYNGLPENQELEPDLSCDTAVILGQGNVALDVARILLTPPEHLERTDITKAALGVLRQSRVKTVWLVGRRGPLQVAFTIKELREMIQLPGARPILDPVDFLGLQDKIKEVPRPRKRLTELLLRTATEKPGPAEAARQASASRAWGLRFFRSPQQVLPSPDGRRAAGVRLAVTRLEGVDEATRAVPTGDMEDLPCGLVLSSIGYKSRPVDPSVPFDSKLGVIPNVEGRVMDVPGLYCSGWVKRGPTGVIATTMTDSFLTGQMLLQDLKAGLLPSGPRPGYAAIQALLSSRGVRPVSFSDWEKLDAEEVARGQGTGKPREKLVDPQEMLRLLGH

cytochrome b5 (from UniProt P00167)
Kd (CYP1B1 (Homo sapiens)): 70 nM | Kd (CYP2C9 (Homo sapiens)): 1100 nM | Kd [1]: 100 nM

ferrochelatase (from UniProt P22830)
Kd [2]: 13000 nM | Kd (SMAD4 (Homo sapiens)): 1600 nM | Kd [3]: 1500 nM
